This assay has as its target human GRP receptor (human, UniProt P30550 1-384). As to the kind of experiment: cell-based or functional assay.

Here are results for 20 molecules from US20260176319A1 (KALLYOPE, published 2026).

Starred links: 1 amine or outer side, 2 acyl side, 3 side chain; linkers in the order of their positions; H or OH if unused. Non-standard residues stand in square brackets, D forms with d. Primed or numbered codes have the meaning given here. *: point of attachment. Trp(7-Me) = Cc1cccc2c(C[C@H](N)C(=O)O)c[nH]c12; C20 diacid = O=C(O)CCCCCCCCCCCCCCCCCCC(=O)*; d(γGlu) = O=C(O)[C@@H](CCC(=O)[*:2])N[*:1]; αMeW = C[C@](N)(Cc1c[nH]c2ccccc12)C(=O)O; γGlu = O=C(O)[C@H](CCC(=O)[*:2])N[*:1]; NMeH = CN[C@@H](Cc1c[nH]cn1)C(=O)O; Palmitoyl = CCCCCCCCCCCCCCCC(=O)*; Hyp = O=C(O)[C@@H]1C[C@@H](O)CN1; 3Pal = N[C@@H](Cc1cccnc1)C(=O)O; Met(O) = CS(=O)CC[C@H](N)C(=O)O; Nle = CCCC[C@H](N)C(=O)O; PEG5′ = not defined here; ACBA = not defined here; ACPA = not defined here; ACPC = not defined here; AEEA = NCCOCCOCC(=O)O; Aib = CC(C)(N)C(=O)O; βAla = NCCC(=O)O; Sar = CNCC(=O)O Where only a bound is given, the exact number is not on record here.

Sequence of human GRP receptor (P30550 whole entry): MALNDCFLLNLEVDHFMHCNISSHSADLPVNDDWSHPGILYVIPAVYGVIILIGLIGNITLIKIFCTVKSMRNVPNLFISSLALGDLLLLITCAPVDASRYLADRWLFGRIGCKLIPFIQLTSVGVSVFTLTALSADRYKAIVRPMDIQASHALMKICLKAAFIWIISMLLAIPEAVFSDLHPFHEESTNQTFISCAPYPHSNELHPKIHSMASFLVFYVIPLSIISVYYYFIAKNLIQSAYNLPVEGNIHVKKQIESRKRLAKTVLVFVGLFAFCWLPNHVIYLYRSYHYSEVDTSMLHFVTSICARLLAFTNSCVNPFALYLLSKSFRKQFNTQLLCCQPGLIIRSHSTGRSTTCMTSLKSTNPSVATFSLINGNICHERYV

B1: Peptide 269 (peptide)
peptide: {C20 diacid}-[γGlu][AEEA][AEEA][Hyp]QHWAV[βAla]HL[Nle]-NH2
SMILES: CCCC[C@H](NC(=O)[C@H](CC(C)C)NC(=O)[C@H](Cc1c[nH]cn1)NC(=O)CCNC(=O)[C@@H](NC(=O)[C@H](C)NC(=O)[C@H](Cc1c[nH]c2ccccc12)NC(=O)[C@H](Cc1c[nH]cn1)NC(=O)[C@H](CCC(N)=O)NC(=O)[C@@H]1C[C@@H](O)CN1C(=O)COCCOCCNC(=O)COCCOCCNC(=O)CC[C@H](NC(=O)CCCCCCCCCCCCCCCCCCC(=O)O)C(=O)O)C(C)C)C(N)=O
As for B1, the “hIP1 GRPR EC50” value was 2.4 nM.

B2: Peptide 277 (peptide)
peptide: {C20 diacid}-[γGlu][γGlu][AEEA][AEEA]SEH[Trp(7-Me)]AV[BABA][NMeH]L[Nle]-NH2
On to B2, for which the “hIP1 GRPR EC50” value is 13.1 nM.

B3: Peptide 273 (peptide)
peptide: {C20 diacid}-[γGlu]E[AEEA][AEEA]GQHWAV[ACBA]HL[Nle]-NH2
modifications: reading uncertain
In the case of B3, the “hIP1 GRPR EC50” value is 12.3 nM.

B4: Peptide 20 (peptide)
peptide: Palmitoyl-[d(γGlu)][AEEA][AEEA]GNH[Trp(7-Me)][Aib]V[dA][3Pal]L[Nle][Sar]-NH2
SMILES: CCCCCCCCCCCCCCCC(=O)N[C@H](CCC(=O)NCCOCCOCC(=O)NCCOCCOCC(=O)NCC(=O)N[C@@H](CC(N)=O)C(=O)N[C@@H](Cc1c[nH]cn1)C(=O)N[C@@H](Cc1c[nH]c2c(C)cccc12)C(=O)NC(C)(C)C(=O)N[C@H](C(=O)N[C@H](C)C(=O)N[C@@H](Cc1cccnc1)C(=O)N[C@@H](CC(C)C)C(=O)N[C@@H](CCCC)C(=O)N(C)CC(N)=O)C(C)C)C(=O)O
In the case of B4, the “hIP1 GRPR EC50” value is > 1000 nM.

B5: Peptide 19 (peptide)
peptide: Palmitoyl-[d(γGlu)][AEEA][AEEA]GEH[Trp(7-Me)][Aib]V[dA][3Pal]L[Nle][Sar]-NH2
SMILES: CCCCCCCCCCCCCCCC(=O)N[C@H](CCC(=O)NCCOCCOCC(=O)NCCOCCOCC(=O)NCC(=O)N[C@@H](CCC(=O)O)C(=O)N[C@@H](Cc1c[nH]cn1)C(=O)N[C@@H](Cc1c[nH]c2c(C)cccc12)C(=O)NC(C)(C)C(=O)N[C@H](C(=O)N[C@H](C)C(=O)N[C@@H](Cc1cccnc1)C(=O)N[C@@H](CC(C)C)C(=O)N[C@@H](CCCC)C(=O)N(C)CC(N)=O)C(C)C)C(=O)O
For the molecule B5, the “hIP1 GRPR EC50” value is > 1000 nM.

B6: Peptide 274 (peptide)
peptide: {C20 diacid}-[γGlu][γGlu][AEEA][AEEA]GNH[αMeW]AV[βAla]HL[Nle]-NH2
SMILES: CCCC[C@H](NC(=O)[C@H](CC(C)C)NC(=O)[C@H](Cc1c[nH]cn1)NC(=O)CCNC(=O)[C@@H](NC(=O)[C@H](C)NC(=O)[C@](C)(Cc1c[nH]c2ccccc12)NC(=O)[C@H](Cc1c[nH]cn1)NC(=O)[C@H](CC(N)=O)NC(=O)CNC(=O)COCCOCCNC(=O)COCCOCCNC(=O)CC[C@H](NC(=O)CC[C@H](NC(=O)CCCCCCCCCCCCCCCCCCC(=O)O)C(=O)O)C(=O)O)C(C)C)C(N)=O
For the molecule B6, the “hIP1 GRPR EC50” value amounted to 4.9 nM.

B7: Peptide 22 (peptide)
peptide: Palmitoyl-[d(γGlu)][AEEA][AEEA]GNH[Trp(7-Me)]AV[Aib]HL[Nle]-NH2
SMILES: CCCCCCCCCCCCCCCC(=O)N[C@H](CCC(=O)NCCOCCOCC(=O)NCCOCCOCC(=O)NCC(=O)N[C@@H](CC(N)=O)C(=O)N[C@@H](Cc1c[nH]cn1)C(=O)N[C@@H](Cc1c[nH]c2c(C)cccc12)C(=O)N[C@@H](C)C(=O)N[C@H](C(=O)NC(C)(C)C(=O)N[C@@H](Cc1c[nH]cn1)C(=O)N[C@@H](CC(C)C)C(=O)N[C@@H](CCCC)C(N)=O)C(C)C)C(=O)O
In the case of B7, the “hIP1 GRPR EC50” value was determined as 10.3 nM.

B8: Peptide 272 (peptide)
peptide: {C20 diacid}-[γGlu][γGlu][AEEA][AEEA]GQHWAV[ACPA]HL[Nle]-NH2
modifications: reading uncertain
Consider B8, for which the “hIP1 GRPR EC50” value is 6 nM.

B9: Peptide 268 (peptide)
peptide: {C20 diacid}-[γGlu][AEEA][AEEA]PQHWAV[βAla]HL[Nle]-NH2
SMILES: CCCC[C@H](NC(=O)[C@H](CC(C)C)NC(=O)[C@H](Cc1c[nH]cn1)NC(=O)CCNC(=O)[C@@H](NC(=O)[C@H](C)NC(=O)[C@H](Cc1c[nH]c2ccccc12)NC(=O)[C@H](Cc1c[nH]cn1)NC(=O)[C@H](CCC(N)=O)NC(=O)[C@@H]1CCCN1C(=O)COCCOCCNC(=O)COCCOCCNC(=O)CC[C@H](NC(=O)CCCCCCCCCCCCCCCCCCC(=O)O)C(=O)O)C(C)C)C(N)=O
As to B9, the “hIP1 GRPR EC50” value amounted to 4.3 nM.

B10: Peptide 21 (peptide)
peptide: Palmitoyl-[d(γGlu)]GNHWAV[Aib]HL[Nle]-NH2
SMILES: CCCCCCCCCCCCCCCC(=O)N[C@H](CCC(=O)NCC(=O)N[C@@H](CC(N)=O)C(=O)N[C@@H](Cc1c[nH]cn1)C(=O)N[C@@H](Cc1c[nH]c2ccccc12)C(=O)N[C@@H](C)C(=O)N[C@H](C(=O)NC(C)(C)C(=O)N[C@@H](Cc1c[nH]cn1)C(=O)N[C@@H](CC(C)C)C(=O)N[C@@H](CCCC)C(N)=O)C(C)C)C(=O)O
B10: the “hIP1 GRPR EC50” value was found to be 120 nM.

B11: Peptide 1 (peptide)
peptide: Palmitoyl-[d(γGlu)][AEEA][AEEA]GNHWAV[Aib]HL[Nle]-NH2
SMILES: CCCCCCCCCCCCCCCC(=O)N[C@H](CCC(=O)NCCOCCOCC(=O)NCCOCCOCC(=O)NCC(=O)N[C@@H](CC(N)=O)C(=O)N[C@@H](Cc1c[nH]cn1)C(=O)N[C@@H](Cc1c[nH]c2ccccc12)C(=O)N[C@@H](C)C(=O)N[C@H](C(=O)NC(C)(C)C(=O)N[C@@H](Cc1c[nH]cn1)C(=O)N[C@@H](CC(C)C)C(=O)N[C@@H](CCCC)C(N)=O)C(C)C)C(=O)O
For B11, the “hIP1 GRPR EC50” value came out at 6.9 nM.

B12: Peptide 275 (peptide)
peptide: {C20 diacid}-[γGlu][γGlu][PEG5′]GEH[Trp(7-Me)]AV[BABA]HL[Nle]-NH2
On to B12, for which the “hIP1 GRPR EC50” value was found to be 12.3 nM.

B13: Peptide 18 (peptide)
peptide: Palmitoyl-[d(γGlu)][AEEA][AEEA]GE[3Pal][Trp(7-Me)][Aib]V[dA][3Pal]L[Nle][Sar]-NH2
SMILES: CCCCCCCCCCCCCCCC(=O)N[C@H](CCC(=O)NCCOCCOCC(=O)NCCOCCOCC(=O)NCC(=O)N[C@@H](CCC(=O)O)C(=O)N[C@@H](Cc1cccnc1)C(=O)N[C@@H](Cc1c[nH]c2c(C)cccc12)C(=O)NC(C)(C)C(=O)N[C@H](C(=O)N[C@H](C)C(=O)N[C@@H](Cc1cccnc1)C(=O)N[C@@H](CC(C)C)C(=O)N[C@@H](CCCC)C(=O)N(C)CC(N)=O)C(C)C)C(=O)O
B13: the “hIP1 GRPR EC50” value is ~1000 nM.

B14: Peptide 278 (peptide)
peptide: {C20 diacid}-[γGlu][γGlu][AEEA][AEEA]GDH[Trp(7-Me)]AV[BABA][NMeH]L[Nle]-NH2
In the case of B14, the “hIP1 GRPR EC50” value came out at 10.8 nM.

B15: Peptide 266 (peptide)
peptide: {C20 diacid}-[γGlu][AEEA][AEEA]GEGEHWAV[βAla]HL[Nle]-NH2
SMILES: CCCC[C@H](NC(=O)[C@H](CC(C)C)NC(=O)[C@H](Cc1c[nH]cn1)NC(=O)CCNC(=O)[C@@H](NC(=O)[C@H](C)NC(=O)[C@H](Cc1c[nH]c2ccccc12)NC(=O)[C@H](Cc1c[nH]cn1)NC(=O)[C@H](CCC(=O)O)NC(=O)CNC(=O)[C@H](CCC(=O)O)NC(=O)CNC(=O)COCCOCCNC(=O)COCCOCCNC(=O)CC[C@H](NC(=O)CCCCCCCCCCCCCCCCCCC(=O)O)C(=O)O)C(C)C)C(N)=O
As to B15, the “hIP1 GRPR EC50” value came out at 11 nM.

B16: Peptide 276 (peptide)
peptide: {C20 diacid}-[γGlu][AEEA][AEEA]GQHWAV[βAla]HL[Met(O)]-NH2
SMILES: CC(C)C[C@H](NC(=O)[C@H](Cc1c[nH]cn1)NC(=O)CCNC(=O)[C@@H](NC(=O)[C@H](C)NC(=O)[C@H](Cc1c[nH]c2ccccc12)NC(=O)[C@H](Cc1c[nH]cn1)NC(=O)[C@H](CCC(N)=O)NC(=O)CNC(=O)COCCOCCNC(=O)COCCOCCNC(=O)CC[C@H](NC(=O)CCCCCCCCCCCCCCCCCCC(=O)O)C(=O)O)C(C)C)C(=O)N[C@@H](CCS(C)=O)C(N)=O
For B16, the “hIP1 GRPR EC50” value worked out at 63.8 nM.

B17: Peptide 17 (peptide)
peptide: Palmitoyl-[d(γGlu)][AEEA][AEEA]GNHWAV[dA][3Pal]L[Nle]-NH2
SMILES: CCCCCCCCCCCCCCCC(=O)N[C@H](CCC(=O)NCCOCCOCC(=O)NCCOCCOCC(=O)NCC(=O)N[C@@H](CC(N)=O)C(=O)N[C@@H](Cc1c[nH]cn1)C(=O)N[C@@H](Cc1c[nH]c2ccccc12)C(=O)N[C@@H](C)C(=O)N[C@H](C(=O)N[C@H](C)C(=O)N[C@@H](Cc1cccnc1)C(=O)N[C@@H](CC(C)C)C(=O)N[C@@H](CCCC)C(N)=O)C(C)C)C(=O)O
Consider B17, for which the “hIP1 GRPR EC50” value is 3 nM.

B18: Peptide 270 (peptide)
peptide: {C20 diacid}-[γGlu][γGlu][AEEA][AEEA]GQH[Trp(7-Me)]AV[BABA][NMeH]L[Nle]-NH2
As for B18, the “hIP1 GRPR EC50” value came out at 3.8 nM.

B19: Peptide 271 (peptide)
peptide: {C20 diacid}-[γGlu][γGlu][AEEA][AEEA]GQHWAV[ACPC]HL[Nle]-NH2
modifications: reading uncertain
For the molecule B19, the “hIP1 GRPR EC50” value was found to be 10.2 nM.

B20: Peptide 267 (peptide)
peptide: {C20 diacid}-[γGlu][AEEA][AEEA]GQHWAV[βAla][NMeH]L[Nle]-NH2
SMILES: CCCC[C@H](NC(=O)[C@H](CC(C)C)NC(=O)[C@H](Cc1c[nH]cn1)N(C)C(=O)CCNC(=O)[C@@H](NC(=O)[C@H](C)NC(=O)[C@H](Cc1c[nH]c2ccccc12)NC(=O)[C@H](Cc1c[nH]cn1)NC(=O)[C@H](CCC(N)=O)NC(=O)CNC(=O)COCCOCCNC(=O)COCCOCCNC(=O)CC[C@H](NC(=O)CCCCCCCCCCCCCCCCCCC(=O)O)C(=O)O)C(C)C)C(N)=O
As to B20, the “hIP1 GRPR EC50” value was determined as 7.4 nM.
